The values that follow come from article PMC2699502.

For the experiment, the target named is EcoR124I S subunit (HsdS) (UniProt P10485).
Sequence of UniProt P10485 (P10485 whole entry): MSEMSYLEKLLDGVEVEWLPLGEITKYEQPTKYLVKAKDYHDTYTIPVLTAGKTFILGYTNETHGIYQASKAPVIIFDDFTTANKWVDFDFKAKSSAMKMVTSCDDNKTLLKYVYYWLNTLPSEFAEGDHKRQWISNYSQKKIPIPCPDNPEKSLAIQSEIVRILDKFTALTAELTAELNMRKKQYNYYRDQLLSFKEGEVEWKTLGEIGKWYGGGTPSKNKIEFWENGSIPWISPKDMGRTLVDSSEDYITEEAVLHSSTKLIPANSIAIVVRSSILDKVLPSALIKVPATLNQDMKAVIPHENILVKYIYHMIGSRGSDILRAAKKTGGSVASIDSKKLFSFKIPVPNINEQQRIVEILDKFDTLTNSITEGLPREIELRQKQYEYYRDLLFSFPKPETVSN

B1: EcoR124I M subunit (HsdM) (enzyme)
chain: MKMTSIQQRAELHRQIWQIANDVRGSVDGWDFKQYVLGALFYRFISENFSSYIEAGDDSICYAKLDDSVITDDIKDDAIKTKGYFIYPSQLFCNVAAKANTNDRLNADLNSIFVAIESSAYGYPSEADIKGLFADFDTTSNRLGNTVKDKNARLAAVLKGVEGLKLGDFNEHQIDLFGDAYEFLISNYAANAGKSGGEFFTPQHVSKLIAQLAMHGQTHVNKIYDPAAGSGSLLLQAKKQFDNHIIEEGFFGQEINHTTYNLARMNMFLHNINYDKFDIKLGNTLTEPHFRDEKPFDAIVSNPPYSVKWIGSDDPTLINDERFAPAGVLAPKSKADFAFVLHALNYLSAKGRAAIVCFPGIFYRGGAEQKIRQYLVDNNYVETVISLAPNLFFGTTIAVNILVLSKHKTDTNVQFIDASELFKKETNNNILTDAHIEQIMQVFASKEDVAHLAKSVAFETVVANDYNLSVSSYVEAKDNREIIDIAELNAELKTTVSKIDQLRKDIDAIVAEIEGCEVQK
For B1, the stoichiometry N stood at 2 M per S.

B2: EcoR124I R subunit (HsdR) (enzyme)
chain: MTHQTHTIAESNNFIVLDKYIKAEPTGDSYQSESDLERELIQDLRNQGYEFISVKSQSAMLANVREQLQNLNGVVFNDSEWRRFTEQYLDNPSDGILDKTRKIHIDYICDFIFDDERLENIYLIDKKNLMRNKVQIIQQFEQAGSHANRYDVTILVNGLPLVQIELKKRGVAIREAFNQIHRYSKESFNSENSLFKYLQLFVISNGTDTRYFANTTKRDKNSFDFTMNWAKSDNTLIKDLKDFTATCFQKHTLLNVLVNYSVFDSSQTLLVMRPYQIAATERILWKIKSSFTAKNWSKPESGGYIWHTTGSGKTLTSFKAARLATELDFIDKVFFVVDRKDLDYQTMKEYQRFSPDSVNGSENTAGLKRNLDKDDNKIIVTTIQKLNNLMKAESDLPVYNQQVVFIFDECHRSQFGEAQKNLKKKFKRYYQFGFTGTPIFPENALGSETTASVFGRELHSYVITDAIRDEKVLKFKVDYNDVRPQFKSLETETDEKKLSAAENQQAFLHPMRIQEITQYILNNFRQKTHRTFPGSKGFNAMLAVSSVDAAKAYYATFKRLQEEAANKSATYKPLRIATIFSFAANEEQNAIGEISDETFDTSAMDSSAKEFLDAAIREYNSHFKTNFSTDSNGFQNYYRDLAQRVKNQDIDLLIVVGMFLTGFDAPTLNTLFVDKNLRYHGLMQAFSRTNRIYDATKTFGNIVTFRDLERSTIDAITLFGDKNTKNVVLEKSYTEYMEGFTDAATGEAKRGFMTVVSELEQRFPDPTSIESEKEKKDFVKLFGEYLRAENILQNYDEFATLKALQQIDLSDPVAVEKFKAEHYVDDEKFAELQTIRLPADRKIQDYRSAYNDIRDWQRREKEAEKKEKSTTDWDDVVFEVDLLKSQEINLDYILGLIFEHNRQNKGKGEMIEEVKRLIRSSLGNRAKEGLVVDFIQQTNLDDLPDKASIIDAFFTFAQREQQREAEALIKEENLNEDAAKRYIRTSLKREYATENGTELNETLPKLSPLNPQYKTKKQAVFQKIVSFIEKFKGVGGKI
In turn, B2 had a stoichiometry N of 1 R per S.
